2 molecules from PMC6102255, “EPO does not promote interaction between the erythropoietin and beta-common receptors” (Scientific Reports, 2018) can be followed below.

Data set [1] concerns the target extracellular domains of the erythropoietin receptor (EPOR), in-house purified (UniProt P19235). Briefly: MST; EPOR labelled with DyLight 650 (30 nM), unlabelled EPOR titrated (0.05-1700 nM); 50 mM Tris, 10 mM MgCl2, 150 mM NaCl, 0.05% Tween 20, pH 7.5; 60% laser power; homodimer to monomers, no EPO.
Data set [2] deals with the molecule itself. Briefly: AUC; sedimentation velocity, 20 °C, 50,000 rpm, 10 mM HEPES, 500 mM NaCl pH 7.2; single proteins (EPO 3 μM; EPOR 1.5, 3, 6 μM; βc 0.75, 1.5, 3 μM) and mixtures of two (EPO + EPOR; βc + EPOR).

The term Kd denotes the concentration at which binding is half-saturated. The term stoichiometry N denotes a count of units in the complex or per binding partner.

Regarding “extracellular domains of the erythropoietin receptor (EPOR), in-house purified (from UniProt P19235 25-250) (domain or fragment)”, the Kd in data set [1] came to 166 nM.

B1: extracellular regions of the beta-common (βc) receptor, in-house purified (domain or fragment, UniProt P32927 17-443, looked up)
chain: WERSLAGAEETIPLQTLRCYNDYTSHITCRWADTQDAQRLVNVTLIRRVNEDLLEPVSCDLSDDMPWSACPHPRCVPRRCVIPCQSFVVTDVDYFSFQPDRPLGTRLTVTLTQHVQPPEPRDLQISTDQDHFLLTWSVALGSPQSHWLSPGDLEFEVVYKRLQDSWEDAAILLSNTSQATLGPEHLMPSSTYVARVRTRLAPGSRLSGRPSKWSPEVCWDSQPGDEAQPQNLECFFDGAAVLSCSWEVRKEVASSVSFGLFYKPSPDAGEEECSPVLREGLGSLHTRHHCQIPVPDPATHGQYIVSVQPRRAEKHIKSSVNIQMAPPSLNVTKDGDSYSLRWETMKMRYEHIDHTFEIQYRKDTATWKDSKTETLQNAHSMALPALEPSTRYWARVRVRTSRTGYNGIWSEWSEARSWDTESVLPMW
modifications: biotin (EZ link sulfo-NHS biotin) when immobilised in SPR; unmodified otherwise
notes: beta common receptor (βc, shared subunit of the GM-CSF, IL-3 and IL-5 receptors), extracellular regions; Used in SEC, MST, SPR and AUC; Plasmid donated by Dr. Timothy Hercus; purification details are in the Supplementary data; also called βc homodimer; CD131
As to B1, the “stoichiometry N” value in data set [2] came to 2.
